{"source": "paper PMC5630374", "system": "T1, His-CalR (Vibrio parahaemolyticus RIMD2210633), ORF:1a4fc32f", "T1 sequence": "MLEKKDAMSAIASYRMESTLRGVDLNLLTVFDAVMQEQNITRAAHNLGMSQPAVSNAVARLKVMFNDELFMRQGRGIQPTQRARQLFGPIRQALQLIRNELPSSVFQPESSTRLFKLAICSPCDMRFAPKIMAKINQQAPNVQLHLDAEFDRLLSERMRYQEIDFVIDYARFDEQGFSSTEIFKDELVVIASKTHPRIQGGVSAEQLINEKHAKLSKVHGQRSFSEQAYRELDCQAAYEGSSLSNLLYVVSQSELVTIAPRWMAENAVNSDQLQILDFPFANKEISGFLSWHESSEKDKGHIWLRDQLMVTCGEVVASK", "test": "DNase I footprinting", "settings": "10 mM Tris-HCl pH 7.5, 50 mM NaCl, 1 mM MgCl2, 0.5 mM EDTA, 0.5 mM DTT, 10 mg/ml salmon sperm DNA (so in the source), room temperature, 20 min (EMSA) or 30 min (ToxR …)", "data": [{"sequence": "CAGGAAACAGCTATGACCGGCTTATATTTATTCTACAGATGGACAGCAATAACGTTCCACGTACAACACGTAATTAACATAGTATTTAATTTTTAAGATAACACAATTCTAATTCTTCATCGCTTGTCGATATAAACCAAAATCCCACCATAATAGAATTTAATAACCGTTAATCTTTATATGCACCAGCACTCATTTGTAAGATTAGAAGCAAGGAGTCAATTCTGGGTTTCCGGCCAAAATATAATAACTAACAACCAAAATTGATAAACACTGGCCGTCGTTTTAC (double strand) [exsB promoter, footprint fragment]", "values": [{"measurement": "binding", "value": "binds"}]}]}
